# Assays:
# [1] = molecular target: AausFP2 (His-tag removed with proteinase K, crystallised) (Aequorea cf. australis); assay: crystal structure; AausFP2 at 51 mg/ml, hanging drop, 14%-24% PEG 3350 trisodium citrate, 0.2 M sodium chloride, 0.1 M HEPES pH 7.3-8.2; 1 molecule in the asymmetric unit; interfaces analysed with PISA
# [2] = molecular target: AausFP1 (His-tag cleaved, crystallised) (Aequorea cf. australis); assay: crystal structure; AausFP1 at 40 mg/ml, hanging drop, 0.7-1.3 M trisodium citrate, 0.2 M sodium chloride, 0.1 M Tris pH 6.5-8.0; 4 molecules in the asymmetric unit; interfaces analysed with PISA
Substance,stoichiometry N [1],stoichiometry N [2]
"AausFP2 (His-tag removed with proteinase K, crystallised) (natural protein)",2,–
"AausFP1 (His-tag cleaved, crystallised) (natural protein)",–,2

# Source: article PMC7660908
